The target in experiment [1] is T1, human CD19 (human, UniProt P15391 20-556).
T1 sequence: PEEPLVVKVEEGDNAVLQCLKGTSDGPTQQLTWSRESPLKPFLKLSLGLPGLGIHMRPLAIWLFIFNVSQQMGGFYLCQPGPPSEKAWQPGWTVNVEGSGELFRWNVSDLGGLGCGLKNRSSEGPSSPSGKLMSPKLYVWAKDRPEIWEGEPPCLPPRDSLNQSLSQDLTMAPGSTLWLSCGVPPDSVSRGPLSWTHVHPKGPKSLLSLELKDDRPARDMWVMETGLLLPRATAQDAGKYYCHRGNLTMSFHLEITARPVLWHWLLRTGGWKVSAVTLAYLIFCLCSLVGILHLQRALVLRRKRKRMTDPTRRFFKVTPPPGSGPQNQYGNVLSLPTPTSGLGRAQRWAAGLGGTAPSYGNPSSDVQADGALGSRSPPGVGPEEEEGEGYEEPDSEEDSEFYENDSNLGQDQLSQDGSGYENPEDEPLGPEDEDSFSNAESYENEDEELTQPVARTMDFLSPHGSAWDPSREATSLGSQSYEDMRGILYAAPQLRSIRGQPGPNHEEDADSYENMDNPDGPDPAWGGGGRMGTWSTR
In words: flow cytometry on CD19-expressing cells (n = 2). (In general: A flow cytometer gives signals particle by particle.)

The target in experiment [2] is T1, human CD19. In words: flow cytometry competition for binding with FMC63 (n = 3).
Experiment [3] addresses T1, human CD19. The experiment is described as follows: flow cytometry on CD19-expressing cells (n = 1). From the text: Various clones were titrated and their binding affinity (EC50) to various CD19-expressing cells assessed by flow cytometry.
In experiment [4] the target is T1, human CD19. In words: flow cytometry competition for binding with FMC63.
Experiment [5] addresses T1, human CD19. The experiment is described as follows: flow cytometry on CD19-expressing cells (n = 4).
Experiment [6] concerns the target T1, human CD19. In words: flow cytometry competition for binding with FMC63 (n = 6).

As usually defined, the EC50 is the concentration giving half of the maximal effect. Lower therefore signals a more potent agent. Broadly, the IC50 is the concentration at which inhibition is half-maximal. The low end stands for higher potency, the high end for lower potency.

B1: Clone 241 scFv (scFv)
scFv: EVQLVQSGGGLVQPGRSLRLSCAASGFTFDDYAMHWVRQAPGKGLEWVSGISWNSGSIGYADSVKGRFTISRDNAKNSLYLQMNSLRAEDTAVYYCARDQGYHYYDSAEHAFDIWGQGTVVTVSSGGGGSGGGGSGGGGSAIRMTQSPSSLSASVGDRVTVTCQASQDISNYLNWYQQKPGRAPKLLIYDASNVKAGVPSRFSGGGSGTDFTLTISSLQPEDFATYYCQQSYSTPQAYTFGQGTKLDIK
notes: Human scFv
In experiment [1], B1 had an EC50 of 5.2 nM. In experiment [2], this molecule had an IC50 of 14.6 nM.

B2: Clone 835 scFv (scFv)
scFv: EVQLVESGGGLVQPGRSLRLSCAASGFTFDDYAMHWVRLAPGKGLEWVSGISWNSGRIGYADSVKGRFTISRDNAKNSLFLQMNSLRAKDTAVYYCARDQGYHYYDSAEHAFDIWGQGTMVTVSSGGGGSGGGGSGGGGSQSVLTQPRSVSGSPGQSVTISCTGPISGVGDYTSVSWYQHYPGKTPKLIIYDVTQRPSGVPNRFSGSKSGNTASLTISGLQADDEADYYCCSYEAPTHTYVFGTGTKLTVL
notes: Human scFv
For B2, the EC50 in experiment [3] amounted to 71.8 nM. For the same molecule, the IC50 in experiment [4] was greater than 200 nM.

B3: Clone 488 scFv (scFv)
scFv: EVQLVQSGGGLVQPGRSLRLSCAASGFTFDDYAMHWVRQAPGKGLEWVSGISWNSGSIGYADSVKGRFTISRDNAKNSLYLQMNSLRAEDTAVYYCARDQGYHYYDSAEHAFDIWGQGTVVTVSSGGGGSGGGGSGGGGSEIVLTQSPATLSLSPGETATLSCRASQSINHYLAWYQQKPGQAPRLLIYDASNRATGIPARFSGSGSGTDFTLTISSLEPEDFATYYCQQSYSHPRMYTFGQGTKLDIK
notes: Human scFv
B3 yielded an EC50 in experiment [5] of 2.9 nM. In experiment [6], the IC50 amounted to 6.1 nM.

(Values after US20240018256A1 (JUNO THERAPEUTICS, published 2024).)
